The results in this text go back to paper doi:10.1101/2021.02.16.431378.

For data set [1], the target named is N-terminally 6xHis-tagged HU-B co-expressed from pET-Duet-1 (E. coli K-12 sub-strain MG1655) (UniProt P0ACF4). The data set is described as follows: SEC.
Data set [2] shares this target. The data set is described as follows: pull-down.
The target of data set [3] is N-terminally 6xHis tagged HU-A (histidine-tagged E. coli HU-A) (E. coli K-12 sub-strain MG1655) (UniProt P0ACF0). Nature of the data set: SEC.
For data set [4] the target is unchanged. Nature of the data set: SEC. This is another data set of the same source. In general terms: In gel filtration, larger molecules generally elute earlier.
For data set [5] the target is unchanged. Nature of the data set: cross-linking.
For data set [6], the target named is N-terminally 6xHis tagged HU-B (histidine-tagged E. coli HU-B) (E. coli K-12 sub-strain MG1655) (UniProt P0ACF4). Nature of the data set: cross-linking.
For data set [7] the target is unchanged. Nature of the data set: cross-linking. The source holds these as a separate data set.
For data set [8] the target is unchanged. The data set is described as follows: SEC.
For data set [9] the target is unchanged. Nature of the data set: SEC. The source holds these as a separate data set.
For data set [10] the target is unchanged. Nature of the data set: cross-linking. This is another data set of the same source.
The target in data set [11] is T1, TmRITC-labelled histidine-tagged HU-B, P0ACF4.
T1 chain: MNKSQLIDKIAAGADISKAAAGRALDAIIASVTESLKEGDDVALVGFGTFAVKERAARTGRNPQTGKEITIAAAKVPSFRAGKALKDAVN
Nature of the data set: FRET or BRET.

The target of a further data set is 6xHis-HU-A (Escherichia coli K-12 MG1655, UniProt P0ACF0 1-90). The data set is described as follows: EMSA. (In EMSA bound probe runs differently from free probe, usually more slowly.)
In a further data set the target is T2, 6xHis-HU-B (Escherichia coli K-12 MG1655, UniProt P0ACF4 1-90).
T2 sequence: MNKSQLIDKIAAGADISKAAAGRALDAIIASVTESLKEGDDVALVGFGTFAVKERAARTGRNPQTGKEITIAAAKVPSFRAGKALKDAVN
Nature of the data set: EMSA.

Where “and” joins values, the source holds several entries; their conditions need not be identical. Equal values may be shown once. Bounds are passed on as bounds.

For orientation: stoichiometry N means the number of molecules, sites or subunits per partner or assembly. “N-terminally 6xHis-tagged HU-B co-expressed from pET-Duet-1 (from UniProt P0ACF4 1-90) (natural protein)”: the stoichiometry N in data set [1] is 2.
“Tag-RFP fused to HU-A without a 6xHis tag (RFP-HU-A) (from UniProt P0ACF0 1-90) (natural protein)”: in [1], the heterodimer as percent of the total overexpressed HU population is less than 5%. Further, in [2], the heterodimer as percent of the total overexpressed HU population was less than 5% and the percent of the total protein purified was less than 10%.
As to “N-terminally 6xHis tagged HU-A (histidine-tagged E. coli HU-A) (from UniProt P0ACF0 1-90) (natural protein)”, the stoichiometry N in [3], in data set [4] and in data set [5] was 2 each time.
With “N-terminally 6xHis tagged HU-B (histidine-tagged E. coli HU-B) (from UniProt P0ACF4 1-90) (natural protein)”, the stoichiometry N in data set [6] is 2 and 4; in data set [7], 2 and 4; in data set [8], 2; in data set [9], 2; in [10], 2 and 4.

B1: FITC-labelled histidine-tagged HU-A (protein)
chain: MNKTQLIDVIAEKAELSKTQAKAALESTLAAITESLKEGDAVQLVGFGTFKVNHRAERTGRNPQTGKEIKIAAANVPAFVSGKALKDAVK
Regarding B1, the “percent heterodimers formed after mixing” value in data set [11] is reported as “less than 5%”.

B2: 4WJ-DNA (Holliday junction) (structured_DNA)
DNA 1: CCCTATAACCCCTGCATTGAATTCCTGTCTGATAA
DNA 2: GTAGTCGTGATAGGTGCAGGGGTTATAGGG
DNA 3: AACAGTAGCTCTTAATTCGAGCTCGCGCCCTATCACGACTA
DNA 4: TTTATCAGACTGGAATTCAAGCGCGAGCTCGAATAAGAGCTACTGT
In the case of B2, the binding result in the data set with 6xHis-HU-A and in the data set with 6xHis-HU-B was “binds” each time.
